Patent publication CN116554335A

Target: T1, 合成的G6PC多肽 (synthetic G6PC immunogen peptide, sequence range 80-120aa) (human) (UniProt P35575)
T1 sequence (peptide, looked up): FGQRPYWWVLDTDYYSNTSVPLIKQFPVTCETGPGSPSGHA
Experiment: indirect ELISA, serial two-fold dilution of the antibody; coating antigen not stated (taken to be the immunogen peptide)

B1: 兔单克隆抗体OTIR5G10 (rabbit anti-human glucose-6-phosphatase (G6PC) monoclonal antibody OTIR5G10) (antibody, V domains shown)
VH: QSVEESGGRLVTPGTPLTLTCTVSGADLSTYGVIWVRQAPGKGLEYIAAIVSGGRPYYRHWAKGRFTISKTSSTTVELKITSPTTEDTATYFCVLGNLWGQGTLVTVSS
VL: AQVLTQTASPVSAAVGGTVTINCQASQSVYSNNYLSWFQQKPGQPPKQLIYRASKLASGVSSRFKGSGSGTQFTLTISDVQCDDAATYYCLGGYDCSSADFGGGTEVVVK
A 抗体效价 (ELISA titer) of 1.2e+07 was found for B1 in this work.
